{
  "source": "paper PMC8431786",
  "about": "“In Search of Monocot Phosphodiesterases: Identification of a Calmodulin Stimulated Phosphodiesterase from Brachypodium distachyon” (International Journal of Molecular Sciences, 2021)",
  "proteins": {"B1": {"name": "BDPDE1 (Brachypodium distachyon) (protein)", "chain": "MWPASKTQMHMFCLCRLDQPSCLVIGSARSINASTPKELSQNASSREIENRLLRVRRSATTGRSEPLARFNHPIQFQHARPPPAPAHGAHEGKKMAAAAVRRAEELVEREMSGRDASHDAAHALRVRDLALSLAAEQGLSSPDRLLIVELAALLHDIGDYKYTKDNMEDMSIVERFLQDVGLEKGQREEIVSIITGMGFKNEVSGKAAEPTLEFAVVQDADRLDAIGAIGVARCFTYGGSKNSALHDPKVLPRDNLSKEKYMSKEKQTSINHFHEKLFKLKDMMKTEAGKRRAEKRHKFMEDFVAEFYEEWSGRA", "notes": "GST-BDPDE1 fusion (pGEX-6P-2, N-terminal GST kept), cDNA from leaf and stalk RNA, E. coli BL21(DE3) pLysS, glutathione-Sepharose"}},
  "substrate": "[H][C@@]12COP(=O)(O)O[C@@]1([H])[C@@H](O)[C@H](n1cnc3c(=O)[nH]c(N)nc31)O2",
  "experiment": "LC-MS/MS of GMP formed, Michaelis-Menten fit",
  "type": "biochemical, Brachypodium distachyon",
  "details": "3 mM Tris-HCl pH 8.0, 37 °C, 25 min, 0.5 mM MgCl2 and MnCl2, 0.1% 2-mercaptoethanol, no calmodulin",
  "data": [
    {"protein": "B1", "values": [
      {"measurement": "Km", "value": 113.3, "unit": "µM"}
    ]}
  ]
}
